Test: yeast display, Sf9 membrane polyspecificity reagent, FACS + sequencing; frameworks hold sequencing errors
How it was run: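 Synthetic nanobody libraries on Saccharomyces cerevisiae BJ5465 were galactose-induced for 36–48 hours, stained 1 hour at 4 °C with 10% biotinylated, detergent-solubilized Sf9 membrane reagent and enriched on streptavidin microbeads. FACS then separated cells into low and high (top ~1%) gates by anti-HA (expression) and streptavidin (reagent binding) fluorescence. Genes were colony-PCR amplified, MiSeq 2 × 250 sequenced and CDR-length filtered. A clone's polyreactivity label is that of its gate of origin.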

Row | Sequence | polyreactivity (PSR sort gate)
1 | QVQLVESGGGLVQAGGSLRLSCADSGITFDWNTMGWYRQAPGKERELVAAITFRSGSTYYADSVKGRFTISRDNAKNTVYLQMNSLKPEDTAVYYCNKDTAYTSPRFDYWGQGTQVTVSS | high polyreactivity
2 | QVQLVESGGGLVQAGGSLRLSCADSGITFSRYAMGWYRQAPGKERELVAAITRRGGNTYYADSVKGRFTISRDIAKNTVYLQMNSLKPVDTAVYYCASGYTYYGGDYWGQGTQVTVSS | high polyreactivity
3 | QVQLVESGGGLVQAGGSLRLSCADSGITFYGSAMGWYRQAPGQERELVAAISKSGGSTHYADSVKGRFTISRDNAKNTVYLQMNSLKPEDTAVYYCAAAYWTRLRRMDYWGQGTQVTVSS | low polyreactivity
4 | QVQLVESGGGLVQAGGSLRLSCADSGNTFYVDTMGWYREAPGKESELVAAIYSTGDRTYYADSLKGRFTISRYKAKNTVYLQMNRLKPEDTAVYYWAARLYRGSLGYYFWGQVTQVTVSS | high polyreactivity
5 | QVQLVESGGGLVQAGGSLRLSCADSGRIFATNAMGWYRHAPGKERELVATITRSAGRTYYADSVKGRFTISRDNAKNTVYLQMNSLKPEDTAVYYCAASYWDTERGYREYDYWGQGTQVTVSS | low polyreactivity
6 | QVQLVESGGGLVQAGGSLRLSCADSGRIFGPYAMGWYRKAPGKERELVAAIRASSSTYYADSVKGRFTISRDNAKNTVYLQMNSLKPEDTAVYYCAADWYYGYAWKYGYWGQGTQVTVSS | low polyreactivity
7 | QVQLVESGGGLVQAGGSLRLSCADSGRIFGTSAMGWYRQAPGKERELVATISYSSGRTYYADSVKGRFTISRDNAKNTVYLQMNSLKPEDTAVYYCARRRRSGSRQYYYWGQGTQVTVSS | high polyreactivity
8 | QVQLVESGGGLVQAGGSLRLSCADSGRIFGYNAMGWYRQAPGKEREFVAAITTSGGSTYYADSVKGRFTISRDNAKKTVFLQMTSLKPEDTAVYYCARDSLHVFYPYASDDYWGQGTQVTVSS | low polyreactivity
9 | QVQLVESGGGLVQAGGSLRLSCADSGRIFVGNAMGWYRQAHGKERELVAAITSSGGSTYYADSVKGRFTISRDNAKNTVYLQMNSLKPEDTAVYYCAARVPYRLKAQPFSNRGYYWGQGTQVTVSS | high polyreactivity
10 | QVQLVESGGGLVQAGGSLRLSCADSGRIFYANAMGWYRQAPGKERELVAAISSGGSTYYADSVKGRFTISRDNAKNTVYLQMNSLKPEDTAVYYCAVYTHKIVRPEYDYWGQGTQVTVSA | low polyreactivity
11 | QVQLVESGGGLVQAGGSLRLSCADSGRIITVYDMGWYRQAPGKEREYVAAISDTDSSTYADSVKGRFTISRDNAKNTVYLQMNSLKPEDTAVYYCNAVGDIFGRVSTEYEYWGQGTQVTVSA | low polyreactivity
12 | QVQLVESGGGLVQAGGSLRLSCADSGRIIYKNAMGWYRQAPGKERELVAAITSSGGSTYYADSVKGRFTISRDNAKNTVYLQMNSLTPVDTAVYYCAAYAYVRFGKLNYWGQGTQVTVSS | low polyreactivity
13 | QVQLVESGGGLVQAGGSLRLSCADSGRTFGSNAMGWYRQAPGKERELVAAISSTVSTNYADSVKGRFTISRDNAKNTVYLQMNSLKPEDTAVYYCNVTRHYSYVSEYDYWGQGTQVTVSS | low polyreactivity
14 | QVQLVESGGGLVQAGGSLRLSCADSGRTFRGNAMGWYRQAPGKERELVAAISWSGDSTYYADSVKGRFTISRDNAKNSVYLQMNSLKPEDTAVYYCNRDYGLQRYRGWYQYNYWGQGTQVTVSS | low polyreactivity
15 | QVQLVESGGGLVQAGGSLRLSCADSGRTFTKYAMGRYRQAPGKERELVAAISRSGGSTYYADSVKGRFTISRVNAKNTVYLQMNSLKPEDTAVYYCAARRYRASSRGYGYWGQGTQVTVSS | high polyreactivity
16 | QVQLVESGGGLVQAGGSLRLSCADSGRTIDVYAMGWYRHAPGKEREFVAAISTGASTCYADSVKGRFTISRDNAKNTVYLQMNSLKTEDTGVYYCAKRVTRWYGYWGQGTQVTVSA | high polyreactivity
17 | QVQLVESGGGLVQAGGSLRLSCADSGRTLSVYAMGWYRQAPGKESELVAAITWRGGSTYYADSVKGRFTISRDNAKNTVYLQMNSLKPEDTAVYYCAAEDYTYNGGGFEYWGQGTQVTVAS | low polyreactivity
18 | QVQLVESGGGLVQAGGSLRLSCADSGRTLVRYTMRGYRQAPGKERDLVASISQRGGTTYYADSVKGRFTISRDNAKNTVYLQMNSLKPEDTAVYYCAAGIHGRYARDWYEYWGQGTQVTVSS | low polyreactivity
19 | QVQLVESGGGLVQAGGSLRLSCADSGSIFAYYAMGWYRQAPGKERELVADITSSGGITYYADSVKGRFTISRDNAKNTVYLQMNSLKPEDTAVYYCNADSLAIVGGSYPYDYWGQGTQVTVSS | low polyreactivity
20 | QVQLVESGGGLVQAGGSLRLSCADSGSIFDDYTMGWYRQAPGKERELVAVITTGGTTYYADSVKGRFTISRDNAKNTVYLQMNSLKPEDTAVYYCAAKEANRYRRYYWGQGTQVTVSS | high polyreactivity
21 | QVQLVESGGGLVQAGGSLRLSCADSGSIFDFNALGWYRQAPRKERELVAAITWSGGSTYYSDSVKGRFTISRDYAKNTVYLQMNSLKPEDTAVYYCAADSLYDDFYYWGQGTQVTVSS | low polyreactivity
22 | QVQLVESGGGLVQAGGSLRLSCADSGSIFGVNVMGWYRQAPGKDRELVAAITSIGGRTYYADSVKGRFTISRDNAKNTVYLQMNSLKPEDTAVYYCNADYTGAEYDYWGQGTQVTVSS | low polyreactivity

Row | Sequence | polyreactivity (PSR sort gate)
23 | QVQLVESGGGLVQAGGSLRLSCADSGSIFLWNTMGWYRQAPGKERELVAAINFSGTRTYYADSVKGRFTISRDNAKNTVYLQMNSLKPEDTAVYYCNARTSRRLDYDYWGQGTQVTVSS | high polyreactivity
24 | QVQLVESGGGLVQAGGSLRLSCADSGSIFSPYAMGWYRQAPGKERELVAAITNSGGRTYYADSVKGRFTISRDNAKNTVYLQMNSLKPEDTAVYYCNADYGKHHPDYYYWGQGTQVTVSS | low polyreactivity
25 | QVQLVESGGGLVQAGGSLRLSCADSGSIFVKNAMGWYRQAPGKERELVATISTGGRTYYADSVKGRFTISLDNAKNTVYLQMNSLKPEDTAVYYCATDFYPRYLLRTYRPYYYWGQGTQVTVSS | low polyreactivity
26 | QVQLVESGGGLVQAGGSLRLSCADSGSIFWLYAMGWYRQAPGKERELVAAIDSGDSTKYADSVKGRFTISRDNAKNTVYLQMNSLKPEDTAVYYCNASRRYHVRAPYDYWGQGTQVTVSS | low polyreactivity
27 | QVQLVESGGGLVQAGGSLRLSCADSGSIFYGYTMGWYRQAPGKERELVAAISSSGGSTYYADSVKGRFTISRDNAKNTVYLQMNSLKPEDTAVYYCAAYVPYSPDHVEFNYWGQGTQVTVSS | high polyreactivity
28 | QVQLVESGGGLVQAGGSLRLSCADSGSIFYPYAKGLYRQDPGKERELVATITSSGSSTYYADSVKGRFTISRDNAKNTVYLQMNSLKPEDTAVYYCAAYRVILYYLYDYWGQGTQVTLSS | low polyreactivity
29 | QVQLVESGGGLVQAGGSLRLSCADSGSISRNAMGWYRQAPGKERELVAGISQSGGRTYYADSVKGRFTISRDNAKKTVYLQMNSLKPEDSAVYYCNADPRRGPGSVSSVRNNYWGQGTQVTVSS | high polyreactivity
30 | QVQLVESGGGLVQAGGSLRLSCADSGSTFDSYAMGWSRQAPGKEMDMVAGITWGGGSTYYADSVKGRLTISRDNAKNTVYLQLNSLKPEDTAVYDCAAEEVYYWYTYYYWGEGTQVTVSS | high polyreactivity
31 | QVQLVESGGGLVQAGGSLRLSCADSGSTFDSYDMGWYRQAPGKERELVAGISYSSDRTYYADSVKGRFTISRDNAKNTVYLQMNSLKPEDTAVYYCAKDHTGTVQYPLDYWGQGTQVTVSS | low polyreactivity
32 | QVQLVESGGGLVQAGGSLRLSCADSGSTFHPYAMGWYRKAPGKERELVAAISWTGGRTYYADSVKGRFTISRDNSKNTVYLQMNSLKPEDTAVYYCAARTYGKVGYWGQGTQVTVSS | high polyreactivity
33 | QVQLVESGGGLVQAGGSLRLSCADSGSTFRANAMGWYRQAPGKERELVAAISQSGGITYYADSVKGRFTISRDNAKNSVYLQMNSLKPEDTAVYYCAAEYWFYYVDSFYYWGQGTQVTVSS | high polyreactivity
34 | QVQLVESGGGLVQAGGSLRLSCADSGSTFVSYAMGWYRQAPGKERELVAVAISWSGGNTYYADSVKGRFTISRDNAKNTVYLQMNSLKPEDTAVYYCAAYGTTGVYRGPGYDYWGQGTQVTVSS | low polyreactivity
35 | QVQLVESGGGLVQAGGSLRLSCADSGSTFYGNVMGWYRQAPGKERELVAAITRGGTTNYADSVKGRFTISRDNAKNTVYLQMNSLKPEDTAVYYCAKASYWVQASNDYWGQGTQVTVSS | low polyreactivity
36 | QVQLVESGGGLVQAGGSLRLSCADSGSTFYTNAMGWYRQAPGKERELVAAINRSGGRTYYADSVKGRFTISRDNAKNTVYLQMNSLKPEDPAVYYCAARYPVRFSTDTARDYYWGQGTQVTVSS | low polyreactivity
37 | QVQLVESGGGLVQAGGSLRLSCADSGTIFALYAMGWYRQAPGKEREFVAAIRRGTSTKYADSVKGRFTISRDNAKNTVYLQMNSLKPEDTAVYYCNARYYYSSSISRWYDYWGQGTQVTVSS | high polyreactivity
38 | QVQLVESGGGLVQAGGSLRLSCADSGYIYPYYAMRWYRQAPGKERELVATITSRGGSTYYADSVKRRFTISRDIAKNTVYLQMNSLKPEDTAVYYCAIEYRYYRRRYDYCGQGTQVTVSS | high polyreactivity
39 | QVQLVESGGGLVQAGGSLRLSCADTGRTFSRNSMGWYIQAPGKERELVATITRGTITNYADSVKGRFTISRDNAMNTVYLQINSRKPEDTAVYYCNARTLFFPARNRCELSDYWGQGTQVTVSS | low polyreactivity
40 | QVQLVESGGGLVQAGGSLRLSCADYGFIMLYYALVCYRQAPGKERELVAAISWTGGRTYYADSVKGRFTISRDNAKNTVYLQMNSLKPEDTAVYFCNTVKLFGRKYGYWGQGTQVTVSS | low polyreactivity
41 | QVQLVESGGGLVQAGGSLRLSCAGSGFTFIRYAMGWYRQAPGKERELVATITRRTGSTYYADSVKGRFTISRDNAKNTVYLQMYSLKPEDTAVYDCAGELYPSWSHTVFHGYNYWGQGTQVTVSS | high polyreactivity
42 | QVQLVESGGGLVQAGGSLRLSCAGSGIIFSRYAMGWYRQAPGKERELVAAISSSGGTTYYADSVKGRFTISRDNAKNTVYLQMNSQKPEDTAVYYCYAPAFYKYKSFYAHSGYDYWGQGTQVTVSS | high polyreactivity
43 | QVQLVESGGGLVQAGGSLRLSCAGSGRIFARNAMGWYRQAPGKARELVAGITWSGSSTYYADSVKGRFTISRDNAKNTVYLQMNRLKPEDTAVYYCAVDYYVGSLRIHHDYWGQGTQVTVSS | low polyreactivity

From the nanobody polyreactivity screen of Harvey et al. (2022)
